Measured values as given in PMC3927496.

B1: VEa5 (ssDNA)
DNA: ATACCAGTCTATTCAATTGGGCCCGTCCGTATGGTGGGTGTGCTGGCCAGATAGTATGTGCAATCA
B2: Linker 10 (15-mer-T10-29-mer) (structured_DNA)
DNA: GGTTGGTGTGGTTGGTTTTTTTTTTAGTCCGTGGTAGGGCAGGTTGGGGTGACT

Tests used:
VEGF165 = VEGF165 (Homo sapiens, UniProt P15692-4 27-191); assay: SPR
thrombin = thrombin (UniProt P00734;P00734 328-363;364-622); assay: SPR

Binder | Kd (VEGF165) [nM] | Kd (thrombin) [nM]
B1 | 116 | 
B2 |  | 0.74
GGTTGGTGTGGTTGGTTTTTAGTCCGTGGTAGGGCAGGTTGGGGTGACT (structured_DNA) [Linker 5 (15-mer-T5-29-mer)] |  | 0.06
GGTTGGTGTGGTTGGAGTCCGTGGTAGGGCAGGTTGGGGTGACT (structured_DNA) [Linker 0 (15-mer-29-mer)] |  | 0.14
